Assay results as given in patent publication US20190185550A1 (HEFEI LIFEON PHARMACEUTICAL, published 2019).

Key:
[1] = target: FN(789), recombinant fibronectin fragment of domains 7, 8 and 9 without the ED-B domain, with 6xHis tags (human, UniProt P02751-1 1173-1446, limits assumed); test: ELISA on coated antigen, antibody B5 as primary antibody, HRP-labeled rabbit anti-human IgG as secondary antibody, OD450
Method: The plasmid is expressed in E. coli and then purified through a Ni-chelating column. The aforementioned three proteins are used as antigens and are blocked with milk. Then an ELISA detection test is conducted by using the antibody B5 as a primary antibody and using the horseradish peroxidase-labeled rabbit-anti-human IgG antibody as the secondary antibody, with the test results being shown in FIG. 2.

[2] = target: T1, recombinant ED-B domain of human fibronectin with six histidine tags at the carboxyl terminal (human, UniProt P02751 1266-1356); test: ELISA, Scatchard assay method (Beatty), coated ED-B
T1 construct: domain: ED-B; also called ED-B antigen; independent ED-B domain
T1 sequence (P02751 other isoform, or with tags, fused parts or gaps limits assumed): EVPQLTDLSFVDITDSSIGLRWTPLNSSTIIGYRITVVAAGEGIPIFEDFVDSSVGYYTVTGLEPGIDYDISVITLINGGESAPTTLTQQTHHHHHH
Method: The Scatchard assay method (Beatty, Beatty et al. 1987) is used for the affinity determination. 0.1 μg/μl ED-B antigen is diluted according to four concentration gradients of 1:1, 1:2, 1:4 and 1:8, enveloped in the ELISA plate, stored overnight at 4° C., and then blocked with 4% skimmed milk. The single-chain antibody diluted according to the concentration gradient of 1:3 is added with the original concentration of the antibody being 10 μg/ml. The antibody reacts under a room temperature for 1 hr, then reacts for 1 hr under the addition of a horseradish peroxidase-labeled rabbit-anti-human IgG antibody, and is stained by adding tetramethyl benzidine (TMB). When an appropriate color depth is reached, the staining is terminated by using 2M H₂SO₄, and the OD450 optical absorption value is determined.

[3] = target: T1, recombinant ED-B domain of human …; test: SPR, BIAcore3000, ED-B amine-coupled on the chip

Chain of FN(789), recombinant fibronectin fragment of domains 7, 8 and 9 without the ED-B domain, with 6xHis tags (P02751 other isoform, or with tags, fused parts or gaps limits assumed): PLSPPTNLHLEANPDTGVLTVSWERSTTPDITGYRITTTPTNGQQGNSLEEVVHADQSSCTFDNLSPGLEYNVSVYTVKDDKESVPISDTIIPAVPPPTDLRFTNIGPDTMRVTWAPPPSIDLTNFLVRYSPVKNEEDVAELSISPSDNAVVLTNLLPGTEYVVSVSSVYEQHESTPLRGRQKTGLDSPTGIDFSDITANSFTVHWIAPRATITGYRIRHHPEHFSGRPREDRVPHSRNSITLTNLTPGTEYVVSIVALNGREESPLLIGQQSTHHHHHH

Row | binding result [1] | Kd [2] [nM] | Kd [3] [nM] | Binder
1 | no binding | 1.8 |  | antibody B5 (humanized single-chain antibody against the ED-B domain, expressed as a fusion with the Fc of human IgG1) (Fc fusion, also called B5-IgG1Fc; single-chain antibody B5; not shown: Fc fragment of the constant region of human IgG1, fused in frame after the scFv (pCI-neo vector); limits and junction no) scFv: EVQLLESGGGLVQPGGSLRLSCAASGFTFSSYAMSWVRQAPGKGLEWVSRISPSGSSTYYADSVKGRFTISRDNSKNTLYLQMNSLRAEDTAVYYCARHTAPLFDYWGQGTLVTVSSGGGGSGGGGSGGGGSSEIVLTQSPGTLSLSPGERATLSCRASQSVSSSYLAWYQQKPGQAPRLLIYKASNLATGIPDRFSGSGSGTDFTLTISRLEPEDFAVYYCQQGRHTPPTFGQGTKVEIK
2 |  | 6 | 0.4 | antibody L19 (antibody, V domains shown) VH: EVQLLESGGGLVQPGGSLRLSCAASGFTFSSFSMSWVRQAPGKGLEWVSSISGSSGTTYYADSVKGRFTISRDNSKNTLYLQMNSLRAEDTAVYYCAKPFPYFDYWGQGTLVTVSS VL: EIVLTQSPGTLSLSPGERATLSCRASQSVSSSYLAWYQQKPGQAPRLLIYYASSRATGIPDRFSGSGSGTDFTLTISRLEPEDFAVYYCQQTGRIPPTFGQGTKVEIK
